The results in this text go back to patent US20240392037A1 (UNIVERSITY OF PITTSBURGH OF THE COMMONWEALTH SYSTEM OF …, published 2024).

For assay [1], the target named is T1, human neutrophil elastase (NE) polypeptide (human, UniProt P08246 28-267, limits assumed).
T1 sequence: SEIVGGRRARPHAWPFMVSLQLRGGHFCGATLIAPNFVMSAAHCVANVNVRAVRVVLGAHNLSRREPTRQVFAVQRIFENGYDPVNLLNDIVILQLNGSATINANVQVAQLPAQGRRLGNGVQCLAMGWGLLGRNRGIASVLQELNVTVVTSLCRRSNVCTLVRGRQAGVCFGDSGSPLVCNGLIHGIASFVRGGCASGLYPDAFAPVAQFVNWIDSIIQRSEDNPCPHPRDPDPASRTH
In words: cell-based or functional assay.

The target of assay [2] is T2, Proteinase 3 (UniProt P24158 28-248, limits assumed).
T2 construct: Specificity control, coated at 50 ng/well in ELISA; also called PR3
T2 sequence (looked up): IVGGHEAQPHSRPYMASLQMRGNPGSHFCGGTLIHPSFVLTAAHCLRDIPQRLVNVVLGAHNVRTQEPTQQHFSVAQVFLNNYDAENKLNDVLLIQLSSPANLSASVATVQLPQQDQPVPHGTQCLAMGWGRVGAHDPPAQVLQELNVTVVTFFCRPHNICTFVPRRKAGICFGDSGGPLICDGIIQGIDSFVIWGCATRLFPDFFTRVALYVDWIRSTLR
As to the kind of experiment: ELISA, PR3 coated at 50 ng/well. The method, then:
(§1) FIG. 12. Specificity of VH/VH-Fc and Fab/IgG1 with recombinant human NE. (A and B) Binding of Fab 1C10 (A) and VH 1D1.43 (B) to rhNE, rhMPO, and PR3 measured by ELISA. (C and D) Binding of IgG1 1C10 (C) and VH-Fc 1D1.43 (D) to rhNE, rhMPO, BSA, and PR3 measured by ELISA. rhNE, rhMPO, BSA, and PR3 were coated in 96-well microplates at 50 ng/well. Experiments were performed in duplicate. Values were reported as the mean±SD.
(§2) The NE polypeptide was coated in 96-well microplates at 50 ng/well in PBS at 4° C. over-night and blocked with 5% milk in PBS for 2 hours at room temperature. For the soluble Fab/VH binding assay, the 3-fold serially diluted Fab/VH were added and incubated for 1 hour at 37° C. and further incubated with anti-FLAG M2-peroxidase (HRP) antibody (A8592, Sigma-Aldrich) for another 1 hour. For the IgG₁ binding assay, HRP conjugated goat anti-human IgG₁ Fc (Sigma-Aldrich) was used for detection. Finally, the reaction was developed by 3,3′,5,5′-tetramethylbenzidine (TMB, Sigma-Aldrich) and stopped by TMB stop buffer (ScyTek laboratories). Absorbance was recorded at 450 nm. The experiment was performed in duplicate.

The target of assay [3] is T3, BSA (UniProt P02769 25-607). In words: ELISA, BSA coated at 50 ng/well. The procedure:
as §1, §2

Assay [4] concerns the target T4, recombinant human myeloperoxidase protein (human, UniProt P05164 49-745, limits assumed).
T4 construct: Specificity control, coated at 50 ng/well in ELISA; also called rhMPO
T4 sequence (looked up): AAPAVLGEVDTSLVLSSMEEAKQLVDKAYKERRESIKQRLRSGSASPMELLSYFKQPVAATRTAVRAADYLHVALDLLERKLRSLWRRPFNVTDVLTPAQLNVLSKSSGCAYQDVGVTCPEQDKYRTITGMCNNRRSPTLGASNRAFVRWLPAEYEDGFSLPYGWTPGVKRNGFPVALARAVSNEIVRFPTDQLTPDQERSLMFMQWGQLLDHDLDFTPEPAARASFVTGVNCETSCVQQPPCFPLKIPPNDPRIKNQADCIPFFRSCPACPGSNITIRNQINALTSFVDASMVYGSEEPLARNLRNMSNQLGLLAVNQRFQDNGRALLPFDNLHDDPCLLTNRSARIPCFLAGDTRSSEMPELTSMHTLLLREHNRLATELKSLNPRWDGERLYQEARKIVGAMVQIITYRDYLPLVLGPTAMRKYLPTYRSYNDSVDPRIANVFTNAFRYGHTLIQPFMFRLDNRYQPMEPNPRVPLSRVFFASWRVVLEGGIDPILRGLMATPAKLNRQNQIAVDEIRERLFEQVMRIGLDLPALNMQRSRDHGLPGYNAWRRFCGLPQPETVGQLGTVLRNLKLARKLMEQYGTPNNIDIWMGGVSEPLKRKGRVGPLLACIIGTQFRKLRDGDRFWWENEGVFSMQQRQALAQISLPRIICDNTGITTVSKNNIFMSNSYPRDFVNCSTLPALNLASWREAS
As to the kind of experiment: ELISA, rhMPO coated at 50 ng/well. The procedure: as §1, §2

For assay [5], the target named is T1, human neutrophil elastase (NE) …. As to the kind of experiment: ELISA, NE coated at 50 ng/well. The procedure:
as §1, §2

Assay [6] has the same target. As to the kind of experiment: ELISA, NE coated at 50 ng/well, anti-human IgG1 Fc-HRP detection. The procedure: as §2
The target is the same in assay [7]. As to the kind of experiment: ELISA, NE coated at 50 ng/well, anti-FLAG-HRP detection. The procedure: as §1, §2
The target of assay [8] is T2, Proteinase 3. In words: ELISA, PR3 coated at 50 ng/well, anti-FLAG-HRP detection.
Assay [9] addresses T4, recombinant human myeloperoxidase …. As to the kind of experiment: ELISA, rhMPO coated at 50 ng/well, anti-FLAG-HRP detection.
The target of assay [10] is T1, human neutrophil elastase (NE) …. As to the kind of experiment: ELISA, NE coated at 50 ng/well, anti-FLAG-HRP detection. The procedure: as §2
This is another data set of the same source.

For assay [11] the target is unchanged. As to the kind of experiment: BLItz biolayer interferometry, NE-Biotin on streptavidin biosensor. The procedure:
The affinity and avidity of anti-hNE binders were detected by biolayer interferometry BLItz (ForteBio, Menlo Park, CA). Briefly, Dulbecco's PBS (DPBS) was used to establish baseline for 30 seconds, and streptavidin biosensor (ForteBio) was coated with 16.7 μg/mL recombinant NE-Biotin for 2 minutes. […] Antigen coated biosensors with PBS served as reference controls. The dissociation was monitored in DPBS for 4 minutes.

The target of assay [12] is T2, Proteinase 3. As to the kind of experiment: ELISA, PR3 coated at 50 ng/well, anti-FLAG-HRP detection. The procedure:
as §1, §2
This is another data set of the same source.

For assay [13], the target named is T4, recombinant human myeloperoxidase …. In words: ELISA, rhMPO coated at 50 ng/well, anti-FLAG-HRP detection. The procedure: as §1, §2
This is another data set of the same source.

Assay [14] addresses T2, Proteinase 3. As to the kind of experiment: ELISA, PR3 coated at 50 ng/well, HRP anti-human IgG1 Fc detection.
Assay [15] concerns the target T4, recombinant human myeloperoxidase …. In words: ELISA, rhMPO coated at 50 ng/well, HRP anti-human IgG1 Fc detection.
Assay [16] concerns the target T3, BSA. As to the kind of experiment: ELISA, BSA coated at 50 ng/well, HRP anti-human IgG1 Fc detection. The procedure: as §1, §2

T3 sequence (P02769 25-607 limits assumed): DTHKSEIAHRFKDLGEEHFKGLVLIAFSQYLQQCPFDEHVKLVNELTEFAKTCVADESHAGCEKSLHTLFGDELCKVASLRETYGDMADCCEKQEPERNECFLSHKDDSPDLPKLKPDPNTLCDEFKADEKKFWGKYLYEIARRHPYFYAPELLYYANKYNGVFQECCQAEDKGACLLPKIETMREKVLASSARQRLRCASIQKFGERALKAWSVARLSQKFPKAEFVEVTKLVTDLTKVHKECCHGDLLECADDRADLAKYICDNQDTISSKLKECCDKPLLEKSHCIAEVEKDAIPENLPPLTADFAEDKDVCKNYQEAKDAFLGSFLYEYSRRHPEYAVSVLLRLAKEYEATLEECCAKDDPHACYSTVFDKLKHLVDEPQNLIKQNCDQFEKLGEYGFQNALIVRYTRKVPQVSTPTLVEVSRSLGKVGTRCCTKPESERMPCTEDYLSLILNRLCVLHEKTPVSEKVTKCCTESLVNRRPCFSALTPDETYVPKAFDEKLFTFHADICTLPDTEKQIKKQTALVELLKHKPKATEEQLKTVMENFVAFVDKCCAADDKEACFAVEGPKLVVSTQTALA

B1: VH-Fc 1D1.43 (Fc fusion)
chain: EVQLVESGGGVVQPGRSLRLSCAASGFTFSNYAMHWVRQAPGKGLEWVAVISYDGSNKYYADSVKGRFTISRDDSTNTLYLQMNNLRAEDTAVYYCAKDLPWEWELDYWGQGTLVTVSS
notes: VH 1D1.43 converted to a bivalent antibody by fusion to human IgG1 Fc; also called VH-Fc ID1.43; not shown: human IgG1 Fc
Regarding B1, in assay [1], the “IC50 of inhibition of neutrophil elastase enzyme activity; fold change against the VH form (VH 1D1.43)” value is 10 fold. In addition, the binding result (with Proteinase 3 [2]; with BSA [3]; in assay [4]) was “no binding (tested: about 1,000 nM)” throughout. The 50% effective concentration (EC50 (read off the curve)) in assay [5] was roughly 0.7 nM. The molecule further returned an EC50 in assay [6] of 0.66 nM.

B2: VH 1D1.43 (other)
VH: B1 chain
notes: Expressed in E. coli, purified on Ni-NTA and detected with anti-FLAG antibody; also called Clone #2; #2 (VH)
For the molecule B2, the “EC50 (read off the curve)” value in assay [7] was roughly 10 nM. Besides, the binding result (in the assay with Proteinase 3 [8]; in assay [9]) was “no binding (tested: about 30,000 nM)” throughout. Further, it took 4.3 nM to reach a half-maximal effect in assay [10] (EC50).

B3: Fab 1C10 (Fab, V domains shown)
VH: QVQLVESGGGLVKPGGSLRLSCAASGFTFSDYYMSWIRQAPGKGLEWVSYISSSGSTIYYADSVKGRFTISRDNAKNSLYLQMNSLRAEDTAVYYCARVGGDFWSGFLMDVWGQGTTVTVSS
VL: DIQMTQSPSSLSASVGDRVTITCRASQSISSYLNWYQQKPGKAPKLLIYAASSLQSGVPSRFSGSGSGTDFTLTISSLQPEDVAVYYCMQALQTPLTFGQGTKLEIKR
notes: Human Fab from a phage library; also called Clone #1; #1 (Fab)
Consider B3, for which the “IC50 of inhibition of neutrophil elastase enzyme activity” value in assay [1] was roughly 5000 nM. In addition, the 50% effective concentration (EC50 (read off the curve)) in assay [7] was roughly 3 nM. Also, in assay [11], the Kd is 8.5 nM. In addition, the concentration for a half-maximal effect (EC50) in [10] turned out to be 16.3 nM. The binding result (in the assay with Proteinase 3 [12]; in assay [13]) was “no binding (tested: about 7,000 nM)” each time.

B4: IgG1 1C10 (antibody, V domains shown)
VH: B3 VH
VL: B3 VL
notes: Fab 1C10 converted to a bivalent human IgG1 (heavy and light chains re-cloned into the pcDNA-IgG1 vector, expressed in Expi293 cells); also called IgG 1C10; 1C10 IgG1
Turning to B4, the “IC50 of inhibition of neutrophil elastase enzyme activity” value in assay [1] worked out at 1800 nM. The binding result (with Proteinase 3 [14]; in assay [15]; with BSA [16]) was “no binding (tested: about 200 nM)” each time. Besides, the Kd in assay [11] worked out at 0.14 nM. In addition, it took 0.4 nM to reach a half-maximal effect in [6] (EC50).
